Measured values taken from US20230357429A1 (JANUX THERAPEUTICS, published 2023).
Like-named read-outs stand apart in the source and are kept apart here. Each block holds one binder with its values, some of them ahead of it. Where no end group is shown, it is not given here.

What was measured:
[1] = biological target: T1, Human TROP2 ECD (31-274 AA), biotinylated (human, UniProt P09758 31-274, biotinylated (site not stated)); test: ELISA on immobilized TROP2
T1 construct: also called tumor-associated calcium signal transducer 2; Human TROP2-biotin
T1 sequence: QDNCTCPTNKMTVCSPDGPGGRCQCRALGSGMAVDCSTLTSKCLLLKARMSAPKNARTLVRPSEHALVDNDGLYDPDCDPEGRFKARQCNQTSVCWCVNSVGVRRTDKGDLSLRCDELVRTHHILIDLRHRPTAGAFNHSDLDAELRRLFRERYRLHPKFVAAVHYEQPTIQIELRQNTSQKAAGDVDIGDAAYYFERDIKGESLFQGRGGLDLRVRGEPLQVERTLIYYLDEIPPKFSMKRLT

[2] = biological target: T2, TCE-37 (anti-CD3 scFv F104A; anti-TROP2 F108A); test: competition ELISA, TCE on captured CD3
T2 construct: scFv on the Fab heavy chain

[3] = biological target: T1, Human TROP2 ECD (31-274 AA), …; test: ELISA on immobilized TROP2; remark: listed apart in the source
[4] = biological target: T1, Human TROP2 ECD (31-274 AA), …; test: ELISA on immobilized TROP2; remark: listed apart in the source
[5] = biological target: T1, Human TROP2 ECD (31-274 AA), …; test: ELISA on immobilized TROP2; remark: listed apart in the source
[6] = biological target: T1, Human TROP2 ECD (31-274 AA), …; test: ELISA on immobilized TROP2; remark: listed apart in the source
[7] = biological target: T1, Human TROP2 ECD (31-274 AA), …; test: ELISA on immobilized TROP2; remark: listed apart in the source
[8] = biological target: T3, CD3 (biotinylated CD3 antigen) (human, UniProt P07766 23-126, limits assumed, biotinylated (site not stated)); test: ELISA, TCE on captured biotin-CD3
T3 construct: also called CD3ε; human CD3

Peptide-65 = biological target: T4, Peptide-65 (cysteine pairing not given here; also: biotinylated, site not given here); test: ELISA, TCE on captured biotin-peptide
T4 construct: mask peptide for the CD3 scFv
T4 peptide: QGCGTIADPEPHCW

Peptide-69 = biological target: T5, Peptide-69 (cysteine pairing not given here; also: biotinylated, site not given here); test: ELISA, TCE on captured biotin-peptide
T5 construct: mask peptide for the CD3 scFv
T5 peptide: SECLVDLQSDPCYW

Peptide-71 = biological target: T6, Peptide-71 (cysteine pairing not given here; also: biotinylated, site not given here); test: ELISA, TCE on captured biotin-peptide
T6 construct: mask peptide for the CD3 scFv
T6 peptide: VDCGPDGDESILCY

Peptide-74 = biological target: T7, Peptide-74 (cysteine pairing not given here; also: biotinylated, site not given here); test: ELISA, TCE on captured biotin-peptide
T7 construct: mask peptide for the CD3 scFv
T7 peptide: ASQCLGPEWEVCPY

[9] = biological target: T3, CD3 (biotinylated CD3 antigen); test: ELISA: biotinylated CD3 captured on neutravidin plates, TCE titrated, HRP secondary antibody
[10] = biological target: T1, Human TROP2 ECD (31-274 AA), …; test: ELISA on immobilized TROP2; remark: listed apart in the source
[11] = biological target: T1, Human TROP2 ECD (31-274 AA), …; test: ELISA on immobilized TROP2; remark: listed apart in the source
TBD-1 wt = biological target: T8, TBD-1 wt; test: competition ELISA: peptide titrated and pre-incubated with a constant concentration of TBD-1, then added to plate-bound biotinylated TROP2; blocked ligand TROP2 (2.m7)
T8 construct: Fab; the heavy chain entry is VH-CH1; also called wild-type anti-TROP2 Fab (hRS7); TROP2 Fab

Human TROP2 Full length = biological target: T9, Human TROP2 Full length (human, UniProt P09758 31-323); test: cell-based or functional assay
T9 sequence: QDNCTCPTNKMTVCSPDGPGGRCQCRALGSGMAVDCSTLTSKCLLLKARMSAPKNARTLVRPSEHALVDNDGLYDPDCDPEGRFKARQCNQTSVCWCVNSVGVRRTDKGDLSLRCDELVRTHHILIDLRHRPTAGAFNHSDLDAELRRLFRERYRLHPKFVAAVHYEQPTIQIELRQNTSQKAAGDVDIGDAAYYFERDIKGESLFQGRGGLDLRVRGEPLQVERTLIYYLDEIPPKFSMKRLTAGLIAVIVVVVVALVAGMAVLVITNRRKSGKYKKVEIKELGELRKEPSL

Cyno TROP2 Full length = biological target: T10, Cyno TROP2 Full length (cynomolgus monkey, UniProt P09758 31-323 (human entry)); test: cell-based or functional assay
T10 chain: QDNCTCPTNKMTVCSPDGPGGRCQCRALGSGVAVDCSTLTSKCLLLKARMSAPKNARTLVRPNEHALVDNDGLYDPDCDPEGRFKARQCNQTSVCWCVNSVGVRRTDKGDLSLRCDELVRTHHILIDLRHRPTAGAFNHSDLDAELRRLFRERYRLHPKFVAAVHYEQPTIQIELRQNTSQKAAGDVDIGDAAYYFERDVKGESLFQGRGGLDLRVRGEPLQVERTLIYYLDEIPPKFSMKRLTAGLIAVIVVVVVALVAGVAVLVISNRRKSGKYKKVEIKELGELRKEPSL

B1: PC-4 (bispecific antibody)
light: not shown
heavy: GGIDFCMLYNWPICAGGGGGSSGGSAAGLLAPPGGLSGRSDAGGGGSQVQLQQSGSELKKPGASVKVSCKASGYTFTNYGMNWVKQAPGQGLKWMGWINTYTGEPTYTDDFKGRFAFSLDTSVSTAYLQISSLKADDTAVYFCARGGFGSSYWYFDVWGQGSLVTVSSASTKGPSVFPLAPSSKSTSGGTAALGCLVKDYFPEPVTVSWNSGALTSGVHTFPAVLQSSGLYSLSSVVTVPSSSLGTQTYICNVNHKPSNTKVDKKVEPKSC
notes: anti-TROP2 wt
EC50 [1]: 32.8 nM

B2: Peptide-77 (peptide)
peptide: YLCGPDTDETLACY
modifications: cysteine pairing not given here; also: biotinylated, site not given here
notes: mask peptide for the CD3 scFv
IC50 [2]: 8.87 µM

B3: TCE-5 (bispecific antibody)
light: not shown
heavy: QVQLQQSGSELKKPGASVKVSCKASGYTFTNYGMNWVKQAPGQGLKWMGWINTYTGEPTYTDDFKGRFAFSLDTSVSTAYLQISSLKADDTAVYFCARGGFGSSYWYFAVWGQGSLVTVSSASTKGPSVFPLAPSSKSTSGGTAALGCLVKDYFPEPVTVSWNSGALTSGVHTFPAVLQSSGLYSLSSVVTVPSSSLGTQTYICNVNHKPSNTKVDKKVEPKSC
EC50 [3]: 1.43 nM
EC50 [4]: 0.59 nM
EC50 [5]: 20.9 nM

B4: TCE-1 (TROP2 T cell engager, anti-CD3 scFv wt, anti-TROP2 wt) (bispecific antibody)
light: DIQLTQSPSSLSASVGDRVSITCKASQDVSIAVAWYQQKPGKAPKLLIYSASYRYTGVPDRFSGSGSGTDFTLTISSLQPEDFAVYYCQQHYITPLTFGAGTKVEIKRTVAAPSVFIFPPSDEQLKSGTASVVCLLNNFYPREAKVQWKVDNALQSGNSQESVTEQDSKDSTYSLSSTLTLSKADYEKHKVYACEVTHQGLSSPVTKSFNRGEC
heavy: not shown
notes: Anti-CD3 scFv joined to the N-terminus of the anti-TROP2 Fab heavy chain; the heavy entry holds scFv, linker and Fab heavy chain; also called TCE-1 (wt)
EC50 [6]: 0.07 nM
EC50 [5]: 1.29 nM
EC50 [7]: 0.06 nM

B5: TCE-13 (anti-CD3 scFv N103A; anti-TROP2 wt) (bispecific antibody)
light: DIQLTQSPSSLSASVGDRVSITCKASQDVSIAVAWYQQKPGKAPKLLIYSASYRYTGVPDRFSGSGSGTDFTLTISSLQPEDFAVYYCQQHYITPLTFGAGTKVEIKRTVAAPSVFIFPPSDEQLKSGTASVVCLLNNFYPREAKVQWKVDNALQSGNSQESVTEQDSKDSTYSLSSTLTLSKADYEKHKVYACEVTHQGLSSPVTKSFNRGEC
heavy: not shown
notes: scFv on the Fab heavy chain; also called TCE-13 (N103A)
EC50 [8]: 1.69 nM
EC50 (Peptide-65): 2.71 nM
EC50 (Peptide-69): 1.69 nM
EC50 (Peptide-71): 0.34 nM
EC50 (Peptide-74): 0.36 nM

B7: TCE-8 (anti-CD3 scFv wt; anti-TROP2 D109A) (bispecific antibody)
light: DIQLTQSPSSLSASVGDRVSITCKASQDVSIAVAWYQQKPGKAPKLLIYSASYRYTGVPDRFSGSGSGTDFTLTISSLQPEDFAVYYCQQHYITPLTFGAGTKVEIKRTVAAPSVFIFPPSDEQLKSGTASVVCLLNNFYPREAKVQWKVDNALQSGNSQESVTEQDSKDSTYSLSSTLTLSKADYEKHKVYACEVTHQGLSSPVTKSFNRGEC
heavy: not shown
notes: scFv on the Fab heavy chain
EC50 [3]: 0.57 nM
EC50 [10]: 0.2 nM
EC50 [11]: 0.16 nM

B8: PC-2 (bispecific antibody)
light: GGIDFCMLYNWPICAGGGGGSSGGSAAGLLAPPGGLSGRSDAGGGGSDIQLTQSPSSLSASVGDRVSITCKASQDVSIAVAWYQQKPGKAPKLLIYSASYRYTGVPDRFSGSGSGTDFTLTISSLQPEDFAVYYCQQHYITPLTFGAGTKVEIKRTVAAPSVFIFPPSDEQLKSGTASVVCLLNNFYPREAKVQWKVDNALQSGNSQESVTEQDSKDSTYSLSSTLTLSKADYEKHKVYACEVTHQGLSSPVTKSFNRGEC
heavy: not shown
notes: anti-TROP2 wt
EC50 [1]: 78.5 nM

B9: PC-3 (bispecific antibody)
light: GGVDFCKIYSWPVCHQGGGGSSGGSAAGLLAPPGGLSGRSDAGGGGSDIQLTQSPSSLSASVGDRVSITCKASQDVSIAVAWYQQKPGKAPKLLIYSASYRYTGVPDRFSGSGSGTDFTLTISSLQPEDFAVYYCQQHYITPLTFGAGTKVEIKRTVAAPSVFIFPPSDEQLKSGTASVVCLLNNFYPREAKVQWKVDNALQSGNSQESVTEQDSKDSTYSLSSTLTLSKADYEKHKVYACEVTHQGLSSPVTKSFNRGEC
heavy: not shown
notes: anti-TROP2 wt
EC50 [1]: 64.6 nM

B12: PC-8 (bispecific antibody)
light: GGVDFCGLYHWPICYQGGGGSGGLSGRSDAGSPLGLAGSGGSDIQLTQSPSSLSASVGDRVSITCKASQDVSIAVAWYQQKPGKAPKLLIYSASYRYTGVPDRFSGSGSGTDFTLTISSLQPEDFAVYYCQQHYITPLTFGAGTKVEIKRTVAAPSVFIFPPSDEQLKSGTASVVCLLNNFYPREAKVQWKVDNALQSGNSQESVTEQDSKDSTYSLSSTLTLSKADYEKHKVYACEVTHQGLSSPVTKSFNRGEC
heavy: not shown
notes: Masked polypeptide complex: anti-TROP2 D109A, anti-CD3 wt
H292 Cytotoxicity EC50 (pM) (Human TROP2 Full length): 14600 pM
HCT116 Cytotoxicity EC50 (pM) (Human TROP2 Full length): > 100000 pM
CyTROP2 HEK293 EC50 (pM) (Cyno TROP2 Full length): 3450 pM
EC50 [3]: 187 nM
EC50 [10]: 86 nM
EC50 [11]: 165 nM

B13: PC-30 (bispecific antibody)
light: GGVDFCGLYHWPICYQGGGGSGGLSGRSDAGSPLGLAGSGGSDIQLTQSPSSLSASVGDRVSITCKASQDVSIAVAWYQQKPGKAPKLLIYSASYRYTGVPDRFSGSGSGTDFTLTISSLQPEDFAVYYCQQHYITPLTFGAGTKVEIKRTVAAPSVFIFPPSDEQLKSGTASVVCLLNNFYPREAKVQWKVDNALQSGNSQESVTEQDSKDSTYSLSSTLTLSKADYEKHKVYACEVTHQGLSSPVTKSFNRGEC
heavy: not shown
notes: anti-TROP2 D109A
EC50 [11]: 151 nM

Next, values leading:

EC50 [9]: 0.171 nM
B6: TCE-35 (anti-CD3 scFv N30Q, I109V, G172A, V231A; anti-TROP2 wt) (bispecific antibody)
light: DIQLTQSPSSLSASVGDRVSITCKASQDVSIAVAWYQQKPGKAPKLLIYSASYRYTGVPDRFSGSGSGTDFTLTISSLQPEDFAVYYCQQHYITPLTFGAGTKVEIKRTVAAPSVFIFPPSDEQLKSGTASVVCLLNNFYPREAKVQWKVDNALQSGNSQESVTEQDSKDSTYSLSSTLTLSKADYEKHKVYACEVTHQGLSSPVTKSFNRGEC
heavy: not shown
notes: scFv on the Fab heavy chain

binding result (TBD-1 wt): binds
B10: Peptide-15 (peptide)
peptide: LDFCKLYQWPVCFT

binding result (TBD-1 wt): binds
B11: Peptide-11 (peptide)
peptide: VDFCALYNWPVCET

binding result (TBD-1 wt): binds
B14: Peptide-9 (peptide)
peptide: VDFCYLYNWPVCSK
